Data from the nanobody polyreactivity screen of Harvey et al. (2022).

Assay: yeast display, Sf9 membrane polyspecificity reagent, FACS + sequencing; frameworks hold sequencing errors
Summary of the method: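 A synthetic nanobody library was expressed on Saccharomyces cerevisiae BJ5465 by galactose induction for 36–48 hours. The library was stained for 1 hour at 4 °C with 10% biotinylated, detergent-solubilized Sf9 membrane reagent and enriched with streptavidin microbeads before FACS. Low and high (top ~1%) gates were set on anti-HA fluorescence for expression and streptavidin fluorescence for reagent binding, and each polyreactivity label reflects the gate of origin.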

Sequence	polyreactivity (PSR sort gate)
QVQLVESGGGLVQAGGSLRLSCAASGFIFGPNAMGWYRQAPGKERELVAAIRWSGSRTYYADSVKGRFTISRDNAKNTVYLQMNSLKPEDTAVYYCATTYGYYTYDYWGQGTQVTVSS	high polyreactivity
QVQLVESGGGLVQAGGSLRLSCAASGITFAYKAMGWYRQAPGTERELVARITSGGRTYYSDSVKARFTISRDNAMNTVYLQMNSLKPEDTAVYYCNAKEGSRYRKYDYWGQGTQVTVSS	low polyreactivity
QFQLVESGGGLVQAGGSLRLSCAASGSIFDYYDLGWSRKAPGKERELGAAINWSGGITYYADSVKGRFTISRDNAKNTVYLQMNSLKPEDTGVYYCAADWYQWVYSSSITSFDYWGQGTQVTVSS	low polyreactivity
QVQLVESGGGLVQAGGSLRLSCAASGFTFAYYTMGWYRQAPGKERELVAAINWSGGSTYYADSVKGRFTISRDYAKNTVYLQMNSLKPEDTAVYYCAAKSYWWATYDYWGQGTQVTVSS	high polyreactivity
QVQLVESGGGLVQAGGSLRLSCAASGRTFFSYAMGWYRQAPGKERELVAAISRRGSSTYYADSVKGRFTISRDNAKNTVYLQMNSLKPEDTAVYYCAADVVRGSRYNRYGYWGQGTQVTVSS	high polyreactivity
QVQLVESGGGLVQAGGSLRLSCAASGRTFRINAMGWYRQAPGKERELVAAITRGDTNYADSVKGRFTISRDNAKNTVYLQMNSLKPEDTAVYYCNAELSFRYPVFRELDYWGQGTQVTVSS	low polyreactivity
QVQLVESGGGLVQAGGSLRLSCAASGSTFNGYTMGWYRQAPGKERELVAAITWSGGRTYYADSVKGRFTISRDNAKNTVYLQMNSLKPEDTAVYYCAAKLRSRYDYWGQGTQVTVSS	high polyreactivity
QVQLVESGGGLVQAGGSLRLSCAASGFTFWRYAMAWYRQAPWKERDLVAAISRTGGRTYYADSVKGRFTISRDNAKNTVYLQMNSLKPEDTAVDYCAAVKYETYRYNYDYWGQGTQVTVSS	high polyreactivity
QVQLVESGGGLVQAGGSLRLSCAASGSIFYSNAMVWYRQAPGKEREFVAAISTSAGRTYYADSVKGRFTISRDNAKNKVYLQLNSLNPEDTEVYYCAAGTNYGKLRIRFDYWGQGTQVTVSS	low polyreactivity
QVQLVESGGGLVQAGGSLRLSCAASGRTFPIYAMGWYRQAPGKERELVAAITGGGSTNYADSVKGRFTISRDNAKNTVYLQMNSLKPEDTAVYYCNARWFWYRPGGSRVDYWGQGTHVTVSS	high polyreactivity
QVQLVESGGGLVQAGGSLRLSCAASGFTFQWYGMGWYRQAPGKERELVAAITWSGGRTNYADSVKGRFTISRDNAKNTVYLQMNSLKPEDTAVYYCNKVFPRRGGDDNYWGQGTQVTVSS	high polyreactivity
QVQLVESGGGLVQAGGSLRLSCAASGRTLARYAMGGYRQAPGKERELVAAISSSGGSTYYADSVKGRFTISRDNAKNTVYLQMNSLKPEDTAVYYCAAGWRYRYFRSRNFYPYYYWGQGTQVTVSS	high polyreactivity
QVQLVESGGGLVQAGGILRLSCAASGFTFGPNTMGWNRQAPGKERELVAAISRSGGSTYYADSVKGRFTISRDNAKNTVYLQMNSLNPEDTAVYYCAAYSPLSGGRMDYWGQGTQVNVSS	high polyreactivity
QVQLVESGGGLVQAGGSLRLSWDASGYTFSRNAMGWYRQAPGKERELVAGISWSGSRTYYADSVKGRFTISRDNAKNTVYLQMNSLKPEDTAVYYCAVLAYGPRNARGGTAGYDYWGQGTEVTVSS	high polyreactivity
QVQLVESGGGLVQAGGSLRLSCAASGSTFNYYAMGWYRQAPGKERELVAAISSRSSRTFYADSVKGRFTISRDNEKNTVYLQMNSLKPEDTAVYYCAVKKRAPDGDYWGQGTQVTVSS	high polyreactivity
QVQLVESGGGLVQAGGSLRISCAASGSIFLLYTMGWYRQAPGKEREMVATITSSGGSTYYADSVKGRFTISRDNAKNTVYLHMNSLKPEDTAVYDCNAVGSTWGSFVRYGAQYDYWGQGTEVTVSS	low polyreactivity
QVQLVESGGGLVQAGGSLRLSCAASGSIWYYAMGWYRQAPWTERELVAAIRRGGSTYYADYVKGRFTISRDNAKNTVYVQMNSMKPEDTAVYYCAASWNYYKLDYWGQGTQVTVSS	high polyreactivity
QVQLVESGGGLVQAGGSLRLSCAASGRIFNLYAMGWYRPAPGKERELVAAISWSGGSTYYADSVKGRFTITRDNAKNTVYLQMNSLKPEDTAVYYCKVVSTYKHTYDFDYWGQGTQVTLSS	high polyreactivity
QVQLVESGGGVVQAGGSLRLSCAASGRNFVYNAMGLYRQAPGKERELVAAIYSGGRTYYADSVKGRFTISRDNAKNTVYFKMYSLKPEDTAVYYCAARWYVLPTQTRPYYGYYYWGQGTQVTVSS	high polyreactivity
QFQLVESGGGLVQAGGTLRLSCAASRRIFIHYAMGLSRQAPGKERELVSAISASGGTTNYADSVKGRFTISRDNAKNTVYLQLKSQKQEDTAVYYCAAEGYRSWRGLLSRYYYWGQGTQVTVSS	high polyreactivity
QVQLVESGGGLVQAAGSLRLSCAASGFIFLVYSMGWSRQAPGKARELVAAISASGGRTYYADSVKGRFTISRDNAKNTVYLQMNSLKPEDTAVYYCARLLPTPGKPILDYWGQGTQVTVSS	low polyreactivity
QVQLVESGGGLVQAGVSLRLSCAAYGRIFGPYAMGWYRQAPGKERELVATITWRTGSTYYADSVKGRFTISRDNAKNTVYLQMNSLKPEDTAVYYCAARYGRYSKAGDYWGLGTQVTVSS	high polyreactivity

Sequence	polyreactivity (PSR sort gate)
QVQLVESGGVLDQGGGSLRLSCASSGITYRRYAMGWYRQAPGKERELVAANTYGGGSTYYADSVKGRFTISRDNAKNTVYLQMNSLKPADTAVFYCYARYSGGFGGGSKPDYYWGQGTQVTVAS	high polyreactivity
QVQLVESGGGLVQAGGSLRLSCAASGSTLVTYAMGWSRQAPGTERELVAAISYSGGSTYADSVKGRFTISRDNAKNTVYLQMNSLKPEDTAVYYCNSDTSVDVRFDYWGQGTQVTVSS	low polyreactivity
QVQLLESGGGLVQAGGSLRLSCAASGRIFVRNAMGWYRQAPGKERELVAAITSSGGRTYYADSVKGRFTISRDNAKNTVYLQMNSLKPEDTAVYYCNADDFGYASYEYWGQGSQVTVSS	low polyreactivity
QVQLVESGGGLVQSGGSLRLSCAASGSTIPPNAMGWYRQAPGKERELVAGISYGGSTTYADSVKGRFTISRDNAKNTVYLQMNSLKPEDTAVYYCAADQPYWRDYDYWGQGTQVTVSS	low polyreactivity
QVQLVESGGGLVQAGGSLRLSCAASGLTFAYYAMGWYRQAPGKDRELVAAISWNGGRTYYADSVKGRFTISRDNAKNTVYLQMNSLKPEDTAVYYCAAQVTSSFYWGQGTQVTVSS	high polyreactivity
QVQLVESGGGLVQAGGSLRLSCAASGSILSTNDMGWYRQAPGKERELVAGISSGGSTNYADSVKGRFTISRDNAKNTVYLQMNSQKPEDTAVYYCATDVDKDPAEMDYWGQGTQVTVSS	low polyreactivity
QVQLVESGGGLVQAGGSLRLSCAASGSIFAKYAMGWYRQAPGKESEFVAAIRASGGRTYYADSVKGRFTISRDNAKNTVYLQMNSLKPEDTAVYYCAAHLYSSRSDYDGPRSRRNYWGQGTQVTVSS	high polyreactivity
QVQLVESGGGLVQAGGSLRLSCAASGRIFLYYAMGWYRQAPGKERELVAAITSSGGDTYYADSVKGRFTISRDNANNTVYLQMYSLKPEDTAVYYCAAYSWWNEYDYWGQGTQVTVSS	high polyreactivity
QVQLVESGGGLVQAGGSLRLSCAASGRIFTGYAMGWYRQAPGKERELVAAINWSGGSTYYADSVKGRFTISRDNAKNTVYLQMNSLKPADTAVYYCNAGYVFSGSYYKYDYWGQGTQVTVSS	high polyreactivity
QVQLVESGGGLVQAGGSLRLSCAASGRTFYLYTMGWYRQAPGKEREFVAIISRSGASTRYADSVKGRFTISRDNAKNTVYLQMNRLKPEDTAVYYCAAYVGYPYDYWGQGTQVTVSS	high polyreactivity
QVQLVESGGGLVQAGGSLRLSCAASGLIFSYYAMGWYRQAPGKERELVAAITGSGGTTYYADSVKGRFTISRDNAKNTVYLQMNSLKPEDTAVYYCATPPPEVWQRWYREYDYWGQGTQVTVSS	low polyreactivity
QVQLVESGGGLVQAGGSLRLSCAASGRTFARYVMGWYRPAPGKERELVASISNSGGSTYYADSVKGRFTISRDNAKNTVYLQMNSQKPEDTAVSYCARRYYYWGQGTQVTVSS	high polyreactivity
QVQLVESGGGLVQAGGSLRLSSAPSGSIFWGYAMGWYRQAPGKERELVATIRNRGGSTYYADSVKGRFTISRDNAKNTVYFQMNSRKPDDTAVYYCAAVSYRQYYGWGNYWGQGSQVTVSS	low polyreactivity
QVQLVESWGRLVQAGGSLRLSCAASGSTFTGNAMGWYRQAPGKERELVAVISSGASTNYADSVKGRFTISRDNAKNSVSLQMNSLKAEDSAVYYCAADSWDYDSRMDYWGQGTHVTVSS	low polyreactivity
QVQLVESGGGLVQAGGSLRLSCAASGDIFSRYMGWYRQAPGKERELVAAITRGGVSTYYADSVKGRFTISRDNAKNTVYLQMNSLKPEDTAVYYCATGRPVYYVASYDYDYWGQGTQVTVSS	low polyreactivity
QVQLVESGGGLVQAGGSLRLSCAASGRILYSYAMGWYRQAPGKERELVAAISSTGSTYYADSVKGRFTISRDNAKNTVYLQMNSLKPEDTAVYYCAATFFPYQVHHYYYWGQGTQVTVSS	low polyreactivity
QVQLVESGGGLVQAGGSLRLSCSASGRTFRGNAMGWSRHAPGKEREMVAAITSSGGSTYYADSVKGRFTISRDNAKNNVHLKMNSLKPEDTAVYYCAKTYVVPQYDYDYWGQGTQVTVSS	low polyreactivity
QVQHVESGGGLVQAGGSLRLSCAASGGTFYTYAMGWYRQAPGKERELVAAITSRGSSTYYADSVKGRFTISRDNANNTVYLQMNSLKPEDTAVYYCARRSQRGMYSMYYWGQGTQVTVSS	low polyreactivity
QVQLVESGGGLVQAGGSLRLSCAASGGTFGVYAMGWYRQAPGKERELVAAIDWDDGNTYYADSVKGRFTLSRDNAKNTVYLQMNSLKPEDTAVYYCAAVVFSRRYWVKFYYWGQGTQVTVSS	high polyreactivity
QVQLVESGGGLVQAGGSLRLSCASSGNTFYGYAMGWYRQAPGKERELVASITLSGDSTYYADSVKGRFTISRDNAKNTVYLQMNSLKPEDTAVYYCAGVYTYPLGYYHYTYDYWGQGTQVTVSS	low polyreactivity
QVQLVESGGGLVQAGGSLRLSCAASGFTFISNAMGWYRKAPGKERELVAAISSSGGRTYYADSVKGRFTISRDNAKNTVYLQMNSLKPEDTAVYYCNADRSLLYSRKIEYDYWGQGTQVTVSS	low polyreactivity
